Experimental data taken from IntAct's records for PubMed 15634206.

B1: Regulatory protein NPR4 (Arabidopsis thaliana (Mouse-ear cress)), Q5ICL9 (parent)
chain: MAATAIEPSSSISFTSSHLSNPSPVVTTYHSAANLEELSSNLEQLLTNPDCDYTDAEIIIEEEANPVSVHRCVLAARSKFFLDLFKKDKDSSEKKPKYQMKDLLPYGNVGREAFLHFLSYIYTGRLKPFPIEVSTCVDSVCAHDSCKPAIDFAVELMYASFVFQIPDLVSSFQRKLRNYVEKSLVENVLPILLVAFHCDLTQLLDQCIERVARSDLDRFCIEKELPLEVLEKIKQLRVKSVNIPEVEDKSIERTGKVLKALDSDDVELVKLLLTESDITLDQANGLHYAVAYSDPKVVTQVLDLDMADVNFRNSRGYTVLHIAAMRREPTIIIPLIQKGANASDFTFDGRSAVNICRRLTRPKDYHTKTSRKEPSKYRLCIDILEREIRRNPLVSGDTPTCSHSMPEDLQMRLLYLEKRVGLAQLFFPAEANVAMDVANVEGTSECTGLLTPPPSNDTTENLGKVDLNETPYVQTKRMLTRMKALMKTVETGRRYFPSCYEVLDKYMDQYMDEEIPDMSYPEKGTVKERRQKRMRYNELKNDVKKAYSKDKVARSCLSSSSPASSLREALENPT
partner: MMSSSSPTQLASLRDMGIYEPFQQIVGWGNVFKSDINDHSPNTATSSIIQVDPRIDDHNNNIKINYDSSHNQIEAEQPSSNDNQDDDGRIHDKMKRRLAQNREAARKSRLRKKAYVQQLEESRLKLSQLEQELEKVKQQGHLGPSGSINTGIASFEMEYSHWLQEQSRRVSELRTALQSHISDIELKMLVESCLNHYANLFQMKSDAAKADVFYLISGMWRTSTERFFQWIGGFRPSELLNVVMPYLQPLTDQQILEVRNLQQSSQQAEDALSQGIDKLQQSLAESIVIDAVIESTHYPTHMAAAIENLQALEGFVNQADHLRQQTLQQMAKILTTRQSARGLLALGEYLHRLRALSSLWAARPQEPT
B2: Regulatory protein NPR4 (Arabidopsis thaliana (Mouse-ear cress)), Q5ICL9 (parent)
chain: B1 chain
partner: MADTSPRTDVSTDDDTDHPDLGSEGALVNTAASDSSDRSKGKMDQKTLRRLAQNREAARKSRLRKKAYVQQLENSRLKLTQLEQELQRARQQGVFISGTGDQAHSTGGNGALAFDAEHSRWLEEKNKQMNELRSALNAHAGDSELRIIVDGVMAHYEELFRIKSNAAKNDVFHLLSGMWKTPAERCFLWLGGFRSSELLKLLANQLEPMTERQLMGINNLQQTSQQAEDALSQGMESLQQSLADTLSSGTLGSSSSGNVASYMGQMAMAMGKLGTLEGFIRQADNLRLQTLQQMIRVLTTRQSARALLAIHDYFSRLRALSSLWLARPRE

Variants of: B1
Settings: with tga7_arath TGA7, Q93ZE2

effect of a mutation on the interaction | Variant
disrupting interaction | H321Y

Variants of: B2
Settings: with tga2_arath TGA2, P43273

effect of a mutation on the interaction | Variant
disrupting interaction | H321Y
